Experimental data taken from patent publication US20220054630A1 (UNIVERSITY OF MARYLAND COLLEGE PARK, published 2022).

Target: T1, CD81 large extracellular loop (LEL) (UniProt P60033 113-201)
T1 construct: domain: large extracellular loop (LEL); not shown: C-terminal twin Strep tag
T1 sequence: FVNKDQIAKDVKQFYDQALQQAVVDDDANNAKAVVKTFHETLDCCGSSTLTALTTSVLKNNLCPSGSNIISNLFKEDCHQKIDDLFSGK
Assay: BLI (Octet RED96), His6-tagged sE2 on Ni-NTA biosensors, CD81-LEL in solution

Binder	binding result
sE2 design H445P (other) ETHVTGGSAGRTTAGLVGLLTPGAKQNIQLINTNGSWHINSTALNCNESLNTGWLAGLFYQPKFNSSGCPERLASCRRLTDFAQGWGPISYANGSGLDERPYCWHYPPRPCGIVPAKSVCGPVYCFTPSPVVVGTTDRSGAPTYSWGANDTDVFVLNNTRPPLGNWFGCTWMNSTGFTKVCGAPPCVIGGVGNNTLLCPTDCFRKHPEATYSRCGSGPWITPRCMVDYPYRLWHYPCTINYTIFKVRMYVGGVEHRLEAACNWTRGERCDLEDRDRSE	binds
wild-type soluble E2 (sE2), HCV isolate H77C, residues 384-661 (other) ETHVTGGSAGRTTAGLVGLLTPGAKQNIQLINTNGSWHINSTALNCNESLNTGWLAGLFYQHKFNSSGCPERLASCRRLTDFAQGWGPISYANGSGLDERPYCWHYPPRPCGIVPAKSVCGPVYCFTPSPVVVGTTDRSGAPTYSWGANDTDVFVLNNTRPPLGNWFGCTWMNSTGFTKVCGAPPCVIGGVGNNTLLCPTDCFRKHPEATYSRCGSGPWITPRCMVDYPYRLWHYPCTINYTIFKVRMYVGGVEHRLEAACNWTRGERCDLEDRDRSE	binds
sE2 design Y632NS (Y632N-G634S) (other) ETHVTGGSAGRTTAGLVGLLTPGAKQNIQLINTNGSWHINSTALNCNESLNTGWLAGLFYQHKFNSSGCPERLASCRRLTDFAQGWGPISYANGSGLDERPYCWHYPPRPCGIVPAKSVCGPVYCFTPSPVVVGTTDRSGAPTYSWGANDTDVFVLNNTRPPLGNWFGCTWMNSTGFTKVCGAPPCVIGGVGNNTLLCPTDCFRKHPEATYSRCGSGPWITPRCMVDYPYRLWHYPCTINYTIFKVRMNVSGVEHRLEAACNWTRGERCDLEDRDRSE	binds
sE2 design Triple (ΔHVR1-H445P-Y632NS) (other) KQNIQLINTNGSWHINSTALNCNESLNTGWLAGLFYQPKFNSSGCPERLASCRRLTDFAQGWGPISYANGSGLDERPYCWHYPPRPCGIVPAKSVCGPVYCFTPSPVVVGTTDRSGAPTYSWGANDTDVFVLNNTRPPLGNWFGCTWMNSTGFTKVCGAPPCVIGGVGNNTLLCPTDCFRKHPEATYSRCGSGPWITPRCMVDYPYRLWHYPCTINYTIFKVRMNVSGVEHRLEAACNWTRGERCDLEDRDRSE	binds
